The values below are quoted from earlier work in article PMC6668730.

pKd: −log10 of the molar value. Where two headings read alike, the source gives them in different places.

Data set [1] has as its target Histone H3 (Homo sapiens) (UniProt P68431).
Data set [2] shares this target. The source holds these as a separate data set.
The target of data set [3] is Histone H3 (Drosophila melanogaster) (UniProt P02299).
The target of data set [4] is Histone H3 (Homo sapiens) (UniProt P68431). This is another data set of the same source.
Data set [5] deals with Histone H3 (Drosophila melanogaster) (UniProt P02299). This is another data set of the same source.

Chain of GLP1 ankyrin repeats (Q9H9B1 737-1004): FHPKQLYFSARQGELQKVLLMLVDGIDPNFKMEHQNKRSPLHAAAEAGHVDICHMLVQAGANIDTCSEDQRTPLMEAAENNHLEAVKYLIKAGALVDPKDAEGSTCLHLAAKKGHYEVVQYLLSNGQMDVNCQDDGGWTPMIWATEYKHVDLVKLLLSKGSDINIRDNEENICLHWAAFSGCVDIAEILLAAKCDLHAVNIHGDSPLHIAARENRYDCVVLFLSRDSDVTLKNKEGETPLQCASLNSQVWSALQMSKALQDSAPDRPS
Chain of G9a ankyrin repeats (Q96KQ7 649-879): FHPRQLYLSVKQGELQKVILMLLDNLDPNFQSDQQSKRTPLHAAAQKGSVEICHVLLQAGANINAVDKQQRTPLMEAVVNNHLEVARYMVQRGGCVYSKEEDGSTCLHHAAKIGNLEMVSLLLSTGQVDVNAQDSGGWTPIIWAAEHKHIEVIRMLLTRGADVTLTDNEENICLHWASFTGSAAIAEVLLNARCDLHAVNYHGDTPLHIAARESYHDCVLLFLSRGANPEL

For BPTF PHD finger (from UniProt Q12830), the figures for the pKd in data set [1] and in data set [2] were 5.30 and 5.57, respectively.
On to “G9a ankyrin repeats (from UniProt Q96KQ7)”, for which the pKd (commonly −log10 of the Kd, conventionally taken in molar units) in data set [3] was 5.22.
On to “GLP1 ankyrin repeats (from UniProt Q9H9B1)”, for which the negative logarithm of the Kd (pKd) is 5.30 in data set [4] and 5.15 in data set [5].
